How the values were obtained:
[1] = target: HRV14-NimII-XXX17AA library (Human rhinovirus 14; influenza type A virus) (UniProt P03303); assay: cell-based or functional assay
[2] = target: HRV14-NimII-XXX23AA library (Human rhinovirus 14; influenza type A virus) (UniProt P03303); assay: cell-based or functional assay

“anti-M2e Mab 14C2 (Abcam, Inc; Cat# ab5416) (antibody)” gave a Fifty-percent neutralization (PRNT) (reciprocal dilution of 1 mg/ml stock) [1] of 2e+06 and a Fifty-percent neutralization (PRNT) (reciprocal dilution of 1 mg/ml stock) [2] of 2e+06.

Reference: patent US20100239605A1
